Measurements as given in patent publication US6897296.
pKi: −log10 of the molar value.

Molecular target: bacterially expressed recombinant Mch4 (GST-Mch4 fusion protein) (human)

Work on DEVD-CHO (tetrapeptide DEVD aldehyde) yielded a pKi of 7.85.
